From patent US20200239517A1

Columns and labels:
[1] = target: human polyclonal IgG (Gammanorm) (human); assay: SPR; ratio to reference Zvar1 after 0.5M NaOH cycles
[2] = target: human polyclonal IgG (Gammanorm) (human); assay: SPR, ligand on chip; IgG signal left after 0.5M NaOH cycles
[3] = target: human polyclonal IgG (Gammanorm) (human); assay: SPR; ratio to reference Zvar4 after 0.5M NaOH cycles
[4] = target: human polyclonal IgG (Gammanorm) (human); assay: SPR; ratio to reference Zvar4 after 1M NaOH cycles
[5] = target: human polyclonal IgG (Gammanorm) (human); assay: SPR, ligand on chip; IgG signal left after 1M NaOH cycles
[6] = target: IgG1 monoclonal antibody (probe molecule of Example 1); assay: Biacore SPR, ligand on CM5 chip, IgG1 mAb as probe
[7] = target: human polyclonal IgG (Gammanorm) (human); assay: SPR; ratio to reference Zvar6 after 0.5M NaOH cycles

Row | Substance | Capacity relative to reference [1] | Capacity after 96-100 cycles [2] [%] | Remaining capacity 100 cycles (%) [2] [%] | Capacity relative to ref. 100 cycles [3] | also measured
1 | Zvar(N11K, H18K, D37E, A42R, N43A, L44I)1 (designed binder) | 1.31 | 59 | – | – | –
2 | Zvar(Q9A, N11E, D37E, Q40V, A42K, N43A, L44I)4 (designed binder) | – | – | 81 | 1.13 | –
3 | Zvar(Q9A, N11E, D37E, Q40V, A42R, N43A, L44I)4 (designed binder) | – | – | 84 | 1.17 | –
4 | Zvar(Q9A, N11E, N28A, N43A)4 (designed binder) | – | – | 80 | 1.19 | Remaining capacity 200 cycles (%) [2]: 62%; Remaining capacity 300 cycles (%) [2]: 42%; Capacity relative to ref. 100 cycles [4]: 2.04; Capacity relative to ref. 200 cycles [3]: 1.72; Capacity relative to ref. 300 cycles [3]: 2.62; Remaining capacity 100 cycles (%) [5]: 55%
5 | Zvar(Q9A, N11E, N28A, Q40V, A42K, N43A, L44I)1 (designed binder) | 1.35 | 65 | – | – | –
6 | Zvar(Q9A, N11E, N43A)4 (designed binder) | – | – | 81 | 1.21 | Remaining capacity 200 cycles (%) [2]: 62%; Remaining capacity 300 cycles (%) [2]: 41%; Capacity relative to ref. 200 cycles [3]: 1.72; Capacity relative to ref. 300 cycles [3]: 2.56
7 | Zvar(Q9A, N11E, Q40V, A42K, N43A, L44I)1 (designed binder) | 1.4 | 66 | – | – | Kd [6]: 1.07 nM; koff [6]: 0.000437 s⁻¹; kon [6]: 410000 M⁻¹ s⁻¹
8 | Zvar(Q9A, N11E, Q40V, A42K, N43A, L44I)6 (designed binder) | – | – | 87 | – | Capacity relative to ref. 100 cycles [7]: 1.3
9 | Zvar(Q9A, N11E, Q40V, A42K, N43E, L44I)4 (designed binder) | – | – | 84 | 1.25 | Remaining capacity 200 cycles (%) [2]: 65%; Remaining capacity 300 cycles (%) [2]: 48%; Capacity relative to ref. 100 cycles [4]: 2; Capacity relative to ref. 200 cycles [3]: 1.81; Capacity relative to ref. 300 cycles [3]: 3; Remaining capacity 100 cycles (%) [5]: 54%
10 | Zvar(Q9A, N11K, H18K, D37E, A42R, N43A, L44I)1 (designed binder) | 1.4 | 63 | – | – | –
11 | Zvar(Q9A, N11K, H18K, D37E, A42R, N43A, L44I, K50R)1 (designed binder) | 1.49 | 67 | – | – | –
12 | parental B domain of Protein A (from UniProt A0A0H3K686 212-269) | – | – | – | – | Reference capacity after 96-100 cycles [2]: 35%
13 | parental C domain of Protein A (from UniProt A0A0H3K686 270-327) | – | – | – | – | Reference capacity after 96-100 cycles [2]: 49%

Now from value to substance, other results behind:

Row | Capacity relative to reference [1] | Capacity after 96-100 cycles [2] [%] | Remaining capacity 100 cycles (%) [2] [%] | Capacity relative to ref. 100 cycles [3] | Substance | also measured
14 | 1.04 | 53 | – | – | Zvar(N11E, Q32E, K50R)1 (designed binder) | –
15 | 1.46 | 67 | – | – | Zvar(N11K, H18K, S33K, D37E, A42R, N43A, L44I, K50R, L51Y)1 (designed binder) | –
16 | – | – | 84 | 1.24 | Zvar(Q9A, N11E, N28A, Q40V, A42K, N43A, L44I)4 (designed binder) | –
17 | – | – | 90 | 1.34 | Zvar(Q9A, N11E, Q40V, A42K, N43A, L44I)4 (designed binder) | Remaining capacity 200 cycles (%) [2]: 74%; Remaining capacity 300 cycles (%) [2]: 57%; Capacity relative to ref. 100 cycles [4]: 2.07; Capacity relative to ref. 200 cycles [3]: 2.06; Capacity relative to ref. 300 cycles [3]: 3.56; Remaining capacity 100 cycles (%) [5]: 56%
18 | 1.28 | 59 | – | – | Zvar(Q9A, N11K, H18K, S33K, D37E, A42R, N43A, L44I, K50R, L51Y)1 (designed binder) | –
